Assays:
Test in all cases: alanine scan, flow cytometry, HEK293-T;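 further: antibody binding to each alanine-substituted CD33 mutant expressed transiently in HEK293-T, read as fluorescence minus background, mean of duplicates, relative to wild-type CD33 set as 100%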
human CD33 K313A = human CD33 K313A (human, UniProt P20138 18-364)
human CD33 L271A = human CD33 L271A (human, UniProt P20138 18-364)
human CD33 K283A = human CD33 K283A (human, UniProt P20138 18-364)
human CD33 V267A = human CD33 V267A (human, UniProt P20138 18-364)
human CD33 P301A = human CD33 P301A (human, UniProt P20138 18-364)
human CD33 A261S = human CD33 A261S (human, UniProt P20138 18-364)
human CD33 F279A = human CD33 F279A (human, UniProt P20138 18-364)
human CD33 C276A = human CD33 C276A (human, UniProt P20138 18-364)
human CD33 K288A = human CD33 K288A (human, UniProt P20138 18-364)
human CD33 G256A = human CD33 G256A (human, UniProt P20138 18-364)
human CD33 G245A = human CD33 G245A (human, UniProt P20138 18-364)
human CD33 E252A = human CD33 E252A (human, UniProt P20138 18-364)
human CD33 G260A = human CD33 G260A (human, UniProt P20138 18-364)
human CD33 G264A = human CD33 G264A (human, UniProt P20138 18-364)
human CD33 R287A = human CD33 R287A (human, UniProt P20138 18-364)
human CD33 H259A = human CD33 H259A (human, UniProt P20138 18-364)
human CD33 A255S = human CD33 A255S (human, UniProt P20138 18-364)
human CD33 F243A = human CD33 F243A (human, UniProt P20138 18-364)
Chain of human CD33 F243A (P20138 18-364 F243A limits assumed): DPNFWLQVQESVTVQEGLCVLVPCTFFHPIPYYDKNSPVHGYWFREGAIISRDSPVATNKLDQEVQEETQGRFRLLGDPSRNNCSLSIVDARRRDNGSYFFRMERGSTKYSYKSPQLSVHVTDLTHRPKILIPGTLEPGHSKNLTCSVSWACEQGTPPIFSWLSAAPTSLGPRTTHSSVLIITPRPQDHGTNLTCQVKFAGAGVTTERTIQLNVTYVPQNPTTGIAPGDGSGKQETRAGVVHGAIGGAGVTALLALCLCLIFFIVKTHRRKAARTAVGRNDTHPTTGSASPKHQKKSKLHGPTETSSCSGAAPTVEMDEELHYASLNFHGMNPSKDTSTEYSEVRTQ

Chain of human CD33 C276A (P20138 18-364 C276A limits assumed): as the sequence (P20138 18-364 F243A limits assumed) above, with A226F, C259A counted along it
Chain of human CD33 A261S (P20138 18-364 A261S limits assumed): as the sequence (P20138 18-364 F243A limits assumed) above, with A226F, A244S counted along it
Chain of human CD33 P301A (P20138 18-364 P301A limits assumed): as the sequence (P20138 18-364 F243A limits assumed) above, with A226F, P284A counted along it
Chain of human CD33 G264A (P20138 18-364 G264A limits assumed): as the sequence (P20138 18-364 F243A limits assumed) above, with A226F, G247A counted along it
Chain of human CD33 R287A (P20138 18-364 R287A limits assumed): as the sequence (P20138 18-364 F243A limits assumed) above, with A226F, R270A counted along it
Chain of human CD33 G256A (P20138 18-364 G256A limits assumed): as the sequence (P20138 18-364 F243A limits assumed) above, with A226F, G239A counted along it
Chain of human CD33 L271A (P20138 18-364 L271A limits assumed): as the sequence (P20138 18-364 F243A limits assumed) above, with A226F, L254A counted along it
Chain of human CD33 G245A (P20138 18-364 G245A limits assumed): as the sequence (P20138 18-364 F243A limits assumed) above, with A226F, G228A counted along it
Chain of human CD33 A255S (P20138 18-364 A255S limits assumed): as the sequence (P20138 18-364 F243A limits assumed) above, with A226F, A238S counted along it
Chain of human CD33 K313A (P20138 18-364 K313A limits assumed): as the sequence (P20138 18-364 F243A limits assumed) above, with A226F, K296A counted along it
Chain of human CD33 E252A (P20138 18-364 E252A limits assumed): as the sequence (P20138 18-364 F243A limits assumed) above, with A226F, E235A counted along it
Chain of human CD33 F279A (P20138 18-364 F279A limits assumed): as the sequence (P20138 18-364 F243A limits assumed) above, with A226F, F262A counted along it
Chain of human CD33 V267A (P20138 18-364 V267A limits assumed): as the sequence (P20138 18-364 F243A limits assumed) above, with A226F, V250A counted along it
Chain of human CD33 K288A (P20138 18-364 K288A limits assumed): as the sequence (P20138 18-364 F243A limits assumed) above, with A226F, K271A counted along it
Chain of human CD33 H259A (P20138 18-364 H259A limits assumed): as the sequence (P20138 18-364 F243A limits assumed) above, with A226F, H242A counted along it
Chain of human CD33 G260A (P20138 18-364 G260A limits assumed): as the sequence (P20138 18-364 F243A limits assumed) above, with A226F, G243A counted along it
Chain of human CD33 K283A (P20138 18-364 K283A limits assumed): as the sequence (P20138 18-364 F243A limits assumed) above, with A226F, K266A counted along it

Row | Mean % WT Binding (human CD33 K313A) | Mean % WT Binding (human CD33 L271A) | Mean % WT Binding (human CD33 K283A) | Mean % WT Binding (human CD33 V267A) | Mean % WT Binding (human CD33 P301A) | Mean % WT Binding (human CD33 A261S) | Mean % WT Binding (human CD33 F279A) | Mean % WT Binding (human CD33 C276A) | Mean % WT Binding (human CD33 K288A) | Mean % WT Binding (human CD33 G256A) | Mean % WT Binding (human CD33 G245A) | Mean % WT Binding (human CD33 E252A) | Mean % WT Binding (human CD33 G260A) | Mean % WT Binding (human CD33 G264A) | Mean % WT Binding (human CD33 R287A) | Mean % WT Binding (human CD33 H259A) | Mean % WT Binding (human CD33 A255S) | Mean % WT Binding (human CD33 F243A) | Binder
1 | 137 % WT binding | 135 % WT binding | 90.9 % WT binding | 106 % WT binding | 93.9 % WT binding | 121 % WT binding | 138 % WT binding | 115 % WT binding | 107 % WT binding | 94.9 % WT binding | 127 % WT binding | 96.3 % WT binding | 140 % WT binding | 89 % WT binding | 112 % WT binding | 104 % WT binding | 97.7 % WT binding | 107 % WT binding | Refmab #3 (antibody, V domains shown, The alanine scan used IgG or Fab) VH: QVQLVQSGAEVKKPGSSVKVSCKASGYTFTDYNMHWVRQAPGQGLEWIGYIYPYNGGTGYNQKFKSKATITADESTNTAYMELSSLRSEDTAVYYCARGRPAMDYWGQGTLVTVSS VL: DIQMTQSPSSLSASVGDRVTITCRASESVDNYGISFMNWFQQKPGKAPKLLIYAASNQGSGVPSRFSGSGSGTDFTLTISSLQPDDFATYYCQQSKEVPWTFGQGTKVEIK
2 | 87.7 % WT binding | 113 % WT binding | 84 % WT binding | 116 % WT binding | 97.9 % WT binding | 65.8 % WT binding | 103 % WT binding | 96.9 % WT binding | 100 % WT binding | 104 % WT binding | 94.9 % WT binding | 115 % WT binding | 106 % WT binding | 89.9 % WT binding | 65.3 % WT binding | 114 % WT binding | 113 % WT binding | 69.9 % WT binding | Refmab #4 (antibody, V domains shown, The alanine scan used IgG or Fab) VH: QVQLVQSGAEVKKPGESVKVSCKASGYTFTNYGMNWVKQAPGQGLEWMGWINTYTGEPTYADKFQGRVTMTTDTSTSTAYMEIRNLGGDDTAVYYCARWSWSDGYYVYFDYWGQGTSVTVSS VL: DIVMTQSPDSLTVSLGERTTINCKSSQSVLDSSTNKNSLAWYQQKPGQPPKLLLSWASTRESGIPDRFSGSGSGTDFTLTIDSPQPEDSATYYCQQSAHFPITFGQGTRLEIK

— patent US20260242735A1 (UNIVERSIT T BASEL, published 2026)
